Measured values from the supplement of paper PMC9233669.
This sample holds only a part of the variants without activity.

Tests used:
[1] = system: biotinyl-Ile-oxazolone; experiment: self-aminoacylation, catalytic enhancement (BIO) (fold over background); higher = more active; k-Seq, kA / k0A0; sequences stand for … in GGGAAUGGAUCCACAUCUACGAAUUC…UUCACUGCAGACUUGACGAAGCUG
How it was run: (§1)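 Mutagenized RNA pools with a 21-nt variable region (0.43 μM) were reacted with each biotinyl-aminoacyl-oxazolone at 2–1250 μM for 90 minutes at room temperature, in 50 μL HEPES/NaCl/KCl/MgCl2/CaCl2 buffer containing 5% acetonitrile at pH 6.9–7.0. RNA captured on streptavidin was quantified by triplicate qPCR and by Illumina sequencing. The fraction reacted for each sequence was fit to a pseudo-first-order model with bootstrapping, and catalytic enhancement is the median kA divided by the uncatalyzed rate, taken as the low-activity peak of a bimodal Gaussian fit.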

[2] = system: biotinyl-Met-oxazolone; experiment: self-aminoacylation, catalytic enhancement (BMO) (fold over background); higher = more active; k-Seq, kA / k0A0; sequences stand for … in GGGAAUGGAUCCACAUCUACGAAUUC…UUCACUGCAGACUUGACGAAGCUG
How it was run: as §1

[3] = system: biotinyl-Phe-oxazolone; experiment: self-aminoacylation, catalytic enhancement (BFO) (fold over background); higher = more active; k-Seq, kA / k0A0; sequences stand for … in GGGAAUGGAUCCACAUCUACGAAUUC…UUCACUGCAGACUUGACGAAGCUG
How it was run: as §1

[4] = system: biotinyl-Trp-oxazolone; experiment: self-aminoacylation, catalytic enhancement (BWO) (fold over background); higher = more active; k-Seq, kA / k0A0; sequences stand for … in GGGAAUGGAUCCACAUCUACGAAUUC…UUCACUGCAGACUUGACGAAGCUG
How it was run: as §1

[5] = system: biotinyl-Val-oxazolone; experiment: self-aminoacylation, catalytic enhancement (BVO) (fold over background); higher = more active; k-Seq, kA / k0A0; sequences stand for … in GGGAAUGGAUCCACAUCUACGAAUUC…UUCACUGCAGACUUGACGAAGCUG
How it was run: as §1

[6] = system: biotinyl-Leu-oxazolone; experiment: self-aminoacylation, catalytic enhancement (BLO) (fold over background); higher = more active; k-Seq, kA / k0A0; sequences stand for … in GGGAAUGGAUCCACAUCUACGAAUUC…UUCACUGCAGACUUGACGAAGCUG
How it was run: as §1

Row | Sequence | self-aminoacylation [1] | self-aminoacylation [2] | self-aminoacylation [3] | self-aminoacylation [4] | self-aminoacylation [5] | self-aminoacylation [6]
1 | CCACGCUUCAAGCACUCGGUC [Fam1B.1 aminoacylation ribozyme variant] | 0.855 | 0.938 | 0.769 | 0.81 | 1.29 | 0.819
2 | AUGACCCUGGUCAUCUAGUGA [Fam2.1 aminoacylation ribozyme variant] | 3.75 | 8.18 | 63.5 | 9.46 | 3.7 | 8.57
3 | CCAUUCUUCAAGCAAUCGGUC [Fam1B.1 aminoacylation ribozyme variant] | 1.04 | 0.939 | 2.79 | 1.68 | 0.976 | 0.992
4 | AUUCACCUAGGACAUCUGGUG [Fam2.2 aminoacylation ribozyme variant] | 2.02 | 2.13 | 8.71 | 2.13 | 1.72 | 2.13
5 | CUACUUCUAACAGUCGGUCUG [Fam1A.1 aminoacylation ribozyme variant] | 0.521 | 0.672 | 0.402 | 0.349 | 0.597 | 0.611
6 | AAGUUUACUACUAGUCGCAAG [Fam3.1 aminoacylation ribozyme variant] | 1.57 | 1.46 | 2.04 | 1.76 | 1.6 | 1.27
7 | AUUGCCCUUGUCAUCGAGUGA [Fam2.1 aminoacylation ribozyme variant] | 3.38 | 7.03 | 42.1 | 8.3 | 3.88 | 7.02
8 | AUUACCCUGGUGAUCGAGUCA [Fam2.1 aminoacylation ribozyme variant] | 0.912 | 0.978 | 0.521 | 0.415 | 0.859 | 0.741
9 | AUUACCCUGGUGAUCGACUGA [Fam2.1 aminoacylation ribozyme variant] | 1.05 | 0.951 | 0.543 | 0.743 | 1.02 | 1.12
10 | CCACCCUUCAAGCAAGCGGUC [Fam1B.1 aminoacylation ribozyme variant] | 1.01 | 1.25 | 0.522 | 0.963 | 1.4 | 1.36
11 | AUUCACCGAGGUUAUCGGGUG [Fam2.2 aminoacylation ribozyme variant] | 4.28 | 7.16 | 87.3 | 7.66 | 5.85 | 10
12 | CCACACUCCAAGCAAACGGUC [Fam1B.1 aminoacylation ribozyme variant] | 0.95 | 0.934 | 1.06 | 1.21 | 0.773 | 0.861
13 | AUUCGCCUACGUCAUCGGGUG [Fam2.2 aminoacylation ribozyme variant] | 3.15 | 5.54 | 44.1 | 4.12 | 3.86 | 7.11
14 | AAGUUUGCUUAUAGUAGCAAG [Fam3.1 aminoacylation ribozyme variant] | 1.04 | 1.06 | 1.56 | 0.878 | 1.12 | 1.08
15 | AAGUUUGAUCAUAGUCGCAAG [Fam3.1 aminoacylation ribozyme variant] | 1.69 | 1.55 | 2.45 | 1.2 | 1.76 | 1.62
16 | AUUACCCUGGUCAUAGGGUGA [Fam2.1 aminoacylation ribozyme variant] | 4.03 | 6.67 | 42.3 | 7.12 | 3.12 | 7.73
17 | AUUACCCUAGUCAUCGAGUGA [Fam2.1 aminoacylation ribozyme variant] | 2.89 | 4.92 | 18 | 6.3 | 3.05 | 5.12
18 | AUAACCCUAGUCAUCGAGUGA [Fam2.1 aminoacylation ribozyme variant] | 2.68 | 5.44 | 5.43 | 6.64 | 2.97 | 5.25
19 | ACACACUUCAAGCAACCGGUC [Fam1B.1 aminoacylation ribozyme variant] | 1.18 | 1.51 | 1.43 | 1.13 | 1.54 | 1.17
20 | AAGUUAGCUAAUAGUCGCAUG [Fam3.1 aminoacylation ribozyme variant] | 1.83 | 1.07 | 3 | 1.64 | 1.34 | 1.97
21 | AUUACCAUGGUCAUCAAGUGA [Fam2.1 aminoacylation ribozyme variant] | 2.22 | 3.69 | 5.16 | 5.09 | 2.4 | 4.04
22 | CCACAGUUCAAGCACUCGGUC [Fam1B.1 aminoacylation ribozyme variant] | 1.16 | 1.3 | 3.53 | 0.897 | 1.62 | 1.73
23 | AAGUUUGCUGAGAGUCGCAAG [Fam3.1 aminoacylation ribozyme variant] | 0.969 | 1.01 | 1.91 | 1.18 | 0.873 | 1.03
24 | AAGUUUGCUGAUAGUCGCUAG [Fam3.1 aminoacylation ribozyme variant] | 1.14 | 1.31 | 1.86 | 1.11 | 1.26 | 1.08
25 | CUACUUCAAACGACCGGUCUG [Fam1A.1 aminoacylation ribozyme variant] | 0.601 | 0.698 | 0.832 | 0.229 | 0.74 | 0.621
26 | AUUACCCGGUUCAUCGAGUGA [Fam2.1 aminoacylation ribozyme variant] | 3.67 | 6.36 | 16.5 | 7.78 | 4.41 | 6.51

Row | Sequence | self-aminoacylation [1] | self-aminoacylation [2] | self-aminoacylation [3] | self-aminoacylation [4] | self-aminoacylation [5] | self-aminoacylation [6]
27 | CAACUUCAGACAAUCGGUCUG [Fam1A.1 aminoacylation ribozyme variant] | 1.09 | 0.989 | 2.46 | 1.43 | 1.09 | 1.08
28 | AUUCACCUAGUUCAUCGUGUG [Fam2.2 aminoacylation ribozyme variant] | 0.937 | 1.2 | 4.05 | 1.1 | 1.11 | 1.25
29 | CAGUUAGCUAAUAGUCGCAAG [Fam3.1 aminoacylation ribozyme variant] | 1.21 | 1.17 | 1.67 | 0.96 | 1.32 | 1.04
30 | AUUACCCUGAUCAUAGAGUGA [Fam2.1 aminoacylation ribozyme variant] | 6.32 | 15.8 | 70.5 | 17.7 | 6.89 | 15.1
31 | CCACCCUUCAAGCAAUCGGUA [Fam1B.1 aminoacylation ribozyme variant] | 1.4 | 1.38 | 0.981 | 2.06 | 1.6 | 1.59
32 | CAACUUCAAACAAUAGGUCUG [Fam1A.1 aminoacylation ribozyme variant] | 1.03 | 0.997 | 1.41 | 0.98 | 0.919 | 0.884
33 | AUUCACGUAGGUCAUGGGGUG [Fam2.2 aminoacylation ribozyme variant] | 3.34 | 3.45 | 24.6 | 4.5 | 4.23 | 5.48
34 | UAGUUUACUAAUAGUCGCAAG [Fam3.1 aminoacylation ribozyme variant] | 1.45 | 1.41 | 2.86 | 1.65 | 1.48 | 1.36
35 | AUUACCCUAGCCAUCGAGUGA [Fam2.1 aminoacylation ribozyme variant] | 2.02 | 3.86 | 9 | 4.91 | 2.13 | 3.46
36 | AUUCCCCUAAGUCAUCGGGUG [Fam2.2 aminoacylation ribozyme variant] | 38.6 | 59.1 | 498 | 62.2 | 37.9 | 85.8
37 | CUACUUCAAACAGUCGCUCUG [Fam1A.1 aminoacylation ribozyme variant] | 1.12 | 1.45 | 1.68 | 1.09 | 1.25 | 1.75
38 | AUUCAGCUAGGUCAUGGGGUG [Fam2.2 aminoacylation ribozyme variant] | 2.74 | 3.03 | 17.8 | 3.72 | 2.98 | 2.94
39 | UAGUUUGCUAAGAGUCGCAAG [Fam3.1 aminoacylation ribozyme variant] | 1.12 | 1.1 | 1.77 | 1.22 | 1.18 | 0.952
40 | AUUACCCCGGUCAUCCAGUGA [Fam2.1 aminoacylation ribozyme variant] | 3.52 | 4.93 | 31.4 | 5.63 | 3.06 | 5.88
41 | AAGUUGGCUCAUAGUCGCAAG [Fam3.1 aminoacylation ribozyme variant] | 1.8 | 1.71 | 2.43 | 2.44 | 1.88 | 1.99
42 | AUUACCCUCGUCAUCGAGUGG [Fam2.1 aminoacylation ribozyme variant] | 0.948 | 1.31 | 0.728 | 0.389 | 0.932 | 1.46
43 | GUUCACCUAGGUCUUCGGGUG [Fam2.2 aminoacylation ribozyme variant] | 3.83 | 4.89 | 33.8 | 5.22 | 4.05 | 5.73
44 | AUUACCCUGGUGAUUGAGUGA [Fam2.1 aminoacylation ribozyme variant] | 3.55 | 7.66 | 57.1 | 9.23 | 3.55 | 7.64
45 | CCAUACUUCAAGCAAUCGGGC [Fam1B.1 aminoacylation ribozyme variant] | 1.95 | 1.53 | 2.06 | 1.15 | 1.73 | 1.61
46 | AUUCACCUUGGUCGUCGGGUG [Fam2.2 aminoacylation ribozyme variant] | 1.9 | 1.86 | 11.3 | 2.01 | 1.81 | 2.18
47 | AUUACCCUGGUCUUGGAGUGA [Fam2.1 aminoacylation ribozyme variant] | 2.27 | 2.24 | 5.63 | 4.3 | 1.98 | 3.23
48 | AAGCUUGCUAAUAGUCACAAG [Fam3.1 aminoacylation ribozyme variant] | 1.64 | 1.5 | 4.35 | 1.28 | 1.35 | 1.65
49 | ACGACCCUGGUCAUCGAGUGA [Fam2.1 aminoacylation ribozyme variant] | 3.57 | 6.93 | 9.21 | 7.11 | 3.77 | 6.52
50 | AUUACGCUGGUCAUCGGGUGA [Fam2.1 aminoacylation ribozyme variant] | 6.21 | 8.98 | 60.9 | 9.36 | 7.46 | 7.84
51 | AUGACCCUGGUCAGCGAGUGA [Fam2.1 aminoacylation ribozyme variant] | 3.46 | 4.85 | 24.2 | 6.08 | 2.94 | 5.66
